# Columns and labels:
# [1] = molecular target: T1, Bridge-1 (Gal4 DBD-Bridge-1) (Rattus norvegicus, UniProt Q9WTV5); experiment: Gal4-Bridge-1 transactivation assay in BHK cells (Gal4-luciferase reporter); format: cell-based
# T1 construct: excision of full-length rat Bridge-1 cDNA from the previously reported Gal4-Bridge-1 (pM-Bridge-1) vector; expressed in transfected cells; host or cells: BHK cells (BHK-21 C-13), transient transfection
# Protocol: FIG. 17 (a-d). The coactivator Bridge-1 interacts with multiple domains of p300. (a) Trichostatin A increases transcriptional activation by Bridge-1. BHK cells were transfected in duplicate with 1.5 μg Gal4-Bridge-1 or empty Gal4 expression vector, 3.25 μg pBluescript, and 250 ng of a Gal4-luciferase reporter and treated with vehicle (0), 2, or 4 ng/mL trichostatin A for 24 hours. Results shown are the mean+/−SEM relative luciferase activity of Gal4-Bridge-1 normalized to the empty Gal4 expression vector (n=3-5 transfections). (b) p300 increases the transcriptional activation by Bridge-1. BHK cells were transfected in duplicate with 0-3 μg of the p300 expression vector pCMV-p300 and 0.5 μg Gal4-Bridge-1 or empty Gal4 expression vector and 1 μg of a Gal4-CAT reporter. pBluescript was used to normalize the total DNA content for all conditions. Data shown are the mean of two transfections. (c) Bridge-1 directly interacts with p300. GST-Bridge-1 or GST control proteins were incubated with in vitro translated, radiolabeled [^35S]-p300 in GST protein interaction assays. A representative autoradiogram is shown of an SDS polyacrylamide gel from a GST pull-down protein interaction assay with the migration position of [^35S]-p300 designated (arrow). (d) Bridge-1 interacts with multiple domains within p300. […]
# Various compounds were assayed for their ability to activate or inhibit Bridge-1 transactivation function. In these experiments, the transactivation assay previously described (Thomas, M. K. et al., Mol. Cell. Biol. 19(12):8492-8504 (1999)) incorporated herein by reference) was used with the modification that the plasmid reporter was a Gal4 luciferase reporter with luciferase activity measured rather than the Gal4CAT reporter used in 1999. […]
# (§1) Cell culture and transfections. […] Transfections were conducted with Lipofectamine or Lipofectamine 2000 (Invitrogen Life Technologies) according to published methods (Thomas, M. K., et al., Molec. Cell. Biol. 19:8492-8504 (1999). Yeast transcriptional activation assays were conducted as previously reported (Thomas, M. K., et al., supra; Golemis, E. A., et al., Current Protocols in Molecular Biology, Ausubel, F. M., et al., eds., John Wiley and Sons, pp. 13.14.1-13.14.17 (1994)) with quantitative LexA-operator responsive beta-galactosidase reporter assays as outlined by the manufacturer (BD Biosciences Clontech, Palo Alto, Calif.).
# [2] = molecular target: T2, Gal4-Bridge-1 (UniProt P04386+Q9WTV5); experiment: Gal4-Bridge-1 transcriptional activation of Gal4-CAT reporter in BHK cells; format: cell-based, rat; conditions: 0-3 μg pCMV-p300 expression vector
# T2 construct: excision of full-length rat Bridge-1 cDNA from the previously reported Gal4-Bridge-1 (pM-Bridge-1) vector; expressed in transfected cells; host or cells: BHK cells (BHK-21 C-13), transient transfection
# Protocol: FIG. 17 (a-d). The coactivator Bridge-1 interacts with multiple domains of p300. (a) Trichostatin A increases transcriptional activation by Bridge-1. BHK cells were transfected in duplicate with 1.5 μg Gal4-Bridge-1 or empty Gal4 expression vector, 3.25 μg pBluescript, and 250 ng of a Gal4-luciferase reporter and treated with vehicle (0), 2, or 4 ng/mL trichostatin A for 24 hours. Results shown are the mean+/−SEM relative luciferase activity of Gal4-Bridge-1 normalized to the empty Gal4 expression vector (n=3-5 transfections). (b) p300 increases the transcriptional activation by Bridge-1. […]
# as §1
# [3] = molecular target: T3, PDX-1 Bait (Rattus norvegicus, UniProt P52947); experiment: Semiquantitative yeast two-hybrid interaction trap assay; format: binding; design: key: ++: growth on leucine dropout plates and intense blue colonies on X-gal plates; −: no growh on leucine dropout plates and white colonies on X-gal plates; conditions: LexA-rat PDX-1 amino acids 160-283 bait, LEU2 and lacZ reporters
# T3 construct: A LexA-rat PDX-1 bait fusion protein construct consisting of PDX-1 amino acids 160-283 cloned in the vector pEG202; expressed in transfected cells
# Protocol: Yeast interaction trap assays. Semiquantitative yeast two-hybrid interaction trap assays were conducted as previously reported (Golemis et al., 1994; Thomas et al., 1999). A LexA-rat PDX-1 bait fusion protein construct consisting of PDX-1 amino acids 160-283 cloned in the vector pEG202 and an acidic domain-rat Bridge-1 fusion protein construct cloned in the vector pJG4-5 were independently tested for activation of LexA operator-responsive LEU2 or β-galactosidase (lacZ) reporters in yeast. Interactions of E12 with rat Twist and rat inhibitor of differentiation-3 (Id3) proteins were used as positive controls and interactions of Bridge-1 with the human interleukin-1 receptor or D. melanogaster bicoid proteins were used as negative controls for the assays (Thomas et al., 1999). Fusion protein interactions were measured independently by growth on leucine dropout plates as a measure of LEU reporter activation or by blue color intensity with growth for 72 hours at 30° C. on X-Gal (5-bromo-4-chloro-3-indoyl-β-D-galactopyranoside) plates as a measure of lacZ reporter activation.
# We assessed whether Bridge-1 interacts with PDX-1 in a yeast two-hybrid interaction trap system. […] Thus the rat Bridge-1 protein interacts with a carboxy-terminal PDX-1 protein fragment in yeast cells.
# [4] = Gal4-luciferase reporter, 24 hours incubation, vs vehicle
# T3 sequence (P52947 160-283): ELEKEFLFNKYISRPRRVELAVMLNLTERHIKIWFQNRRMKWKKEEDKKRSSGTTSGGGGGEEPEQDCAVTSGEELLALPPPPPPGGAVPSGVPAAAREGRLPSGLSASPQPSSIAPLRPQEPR
# T1 sequence (Q9WTV5 with tags, fused parts or gaps): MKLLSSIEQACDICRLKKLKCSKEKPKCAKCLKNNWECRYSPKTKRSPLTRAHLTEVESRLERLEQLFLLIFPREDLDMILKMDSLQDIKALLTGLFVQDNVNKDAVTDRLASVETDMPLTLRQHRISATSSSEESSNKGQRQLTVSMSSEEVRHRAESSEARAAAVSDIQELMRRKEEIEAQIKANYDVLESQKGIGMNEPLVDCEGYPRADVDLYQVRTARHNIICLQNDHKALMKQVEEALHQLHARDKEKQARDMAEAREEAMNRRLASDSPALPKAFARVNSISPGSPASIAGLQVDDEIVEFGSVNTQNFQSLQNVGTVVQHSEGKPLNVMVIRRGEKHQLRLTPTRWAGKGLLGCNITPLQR
# T2 sequence (P04386+Q9WTV5 fused): as the sequence (Q9WTV5 with tags, fused parts or gaps) above
molecule,measurement,setting,value
CC(=O)[C@H]1CC[C@H]2[C@@H]3CCC4=CC(=O)CC[C@]4(C)[C@H]3CC[C@]12C [Progesterone],inhibition of Bridge-1 transactivation function,[1]; [4],22%
"p300: histone acetyltransferase and nuclear receptor coactivator, expressed from pCMV-p300 vector",increase of reporter activation by Gal4-Bridge-1,[2],over 70 fold
CC(/C=C/C(=O)NO)=C\[C@@H](C)C(=O)c1ccc(N(C)C)cc1 [Trichostatin A],effect on transcriptional activation by Bridge-1,[1]; 2 or 4 ng/mL for 24 hours,increased the transcriptional activation by Bridge-1 in a dose-dependent manner
same,activation of Bridge-1 transactivation function,[1]; [4],2.7 fold
Activin A,activation of Bridge-1 transactivation function,[1]; [4],2.34 fold
"Id3: rat inhibitor of differentiation-3 protein, control in yeast interaction trap assay (protein) MKALSPVRGCYEAVCCLSERSLAIARGRGKSPSAEEPLSLLDDMNHCYSRLRELVPGVPRGTQLSQVEILQRVIDYILDLQVVLAEPAPGPPDGPHLPIQTAELTPELVISKDKRSFCH",Interaction with PDX-1 Bait,[3],−
"Twist: rat Twist protein, control in yeast interaction trap assay (protein) MMQDVSSSPVSPADDSLSNSEEEPDRQQPASGKRGARKRRSSRRSAGGSAGPGGATGGGIGGGDEPGSPAQGKRGKKSAGGGGGAGGGGGGGGSSSGGGSPQSYEELQTQRVMANVRERQRTQSLNEAFAALRKIIPTLPSDKLSKIQTLKLAARYIDFLYQVLQSDELDSKMASCSYVAHERLSYAFSVWRMEGAWSMSASH",Interaction with PDX-1 Bait,[3],−
"Bridge-1: rat PDZ-domain transcriptional coactivator, acidic domain fusion in pJG4-5 (protein, left off: small tags and cut ends) MSSEEVRHRAESSEARAAAVSDIQELMRRKEEIEAQIKANYDVLESQKGIGMNEPLVDCEGYPRADVDLYQVRTARHNIICLQNDHKALMKQVEEALHQLHARDKEKQARDMAEAREEAMNRRLASDSPALPKAFARVNSISPGSPASIAGLQVDDEIVEFGSVNTQNFQSLQNVGTVVQHSEGKPLNVMVIRRGEKHQLRLTPTRWAGKGLLGCNITPLQR",Interaction with PDX-1 Bait,[3],++

# Source: patent US7875275B2, “Use of Bridge-1 and activators and inhibitors thereof in the treatment of insulin deficiency and diabetes” (The General Hospital Corporation, priority 2004, dated 2011)
